In the RNAGym collection of RNA variant scans (doi:10.7554/elife.80360):

B1: HDV Ribozyme (parent)
chain: GGCCGGCAUGGUCCCAGCCUCCUCGCUGGCGCCGGCUGGGCAACAUUCCGAGGGGACCGUCCCCUCGGUAAUGGCGAAUGGGACCCA

Variants of: B1
Experiment: self-cleavage, relative activity (ratio to wild type); higher = more cleavage; co-transcriptional
With C15G G28A the self-cleavage was 0.0627.
In the case of C14U G68U, the self-cleavage is reported as 1.04.
C14U G68A showed a self-cleavage of 0.95.
C15A U72G gave a self-cleavage of 0.277.
Variant C15A U72C has a self-cleavage of 0.208.
With C15A U72A the self-cleavage was 0.107.
Variant C15G A70U has a self-cleavage of 0.415.
Work on C14U G35C yielded a self-cleavage of 0.123.
In the case of C14U G35U, the self-cleavage is reported as 0.288.
With C15A A71C the self-cleavage was 0.35.
C15A A71G showed a self-cleavage of 0.443.
Variant C15G G17A has a self-cleavage of 0.133.
For C15G G17C, the self-cleavage was 0.0875.
Variant C15G G54C has a self-cleavage of 0.415.
Work on C15U A16U yielded a self-cleavage of 1.26.
For C15A C85U, the self-cleavage was 0.755.
Work on C15A C85A yielded a self-cleavage of 0.623.
Work on C14U G38C yielded a self-cleavage of 0.158.
C14U G38A showed a self-cleavage of 0.0652.
Variant C15G C64G has a self-cleavage of 0.415.
C15G C64A showed a self-cleavage of 0.538.
C15G C62G showed a self-cleavage of 0.237.
With C15G C62A the self-cleavage was 0.554.
C14U C86U gave a self-cleavage of 0.875.
In the case of C14U C86G, the self-cleavage is reported as 1.12.
With C14U C86A the self-cleavage was 1.1.
Work on C15G A43C yielded a self-cleavage of 0.0875.
In the case of C15G A87G, the self-cleavage is reported as 0.543.
C15G C61G gave a self-cleavage of 0.178.
For C15G C61U, the self-cleavage was 0.434.
C14U G73A showed a self-cleavage of 0.831.
For C14U G73C, the self-cleavage was 0.252.
C15A U65C gave a self-cleavage of 0.519.
In the case of C15A U65A, the self-cleavage is reported as 0.388.
C15G G82C gave a self-cleavage of 0.111.
In the case of C14U C62U, the self-cleavage is reported as 0.923.
With C14U C62G the self-cleavage was 0.751.
Variant C15G A45C has a self-cleavage of 0.217.
With C15G A45G the self-cleavage was 0.665.
For C14U A71C, the self-cleavage was 0.831.
In the case of C14U A71G, the self-cleavage is reported as 0.883.
With C14U A71U the self-cleavage was 1.1.
C14U G39A gave a self-cleavage of 0.284.
C14U G39C gave a self-cleavage of 0.262.
C15A U20A gave a self-cleavage of 0.0573.
C15A U20G showed a self-cleavage of 0.19.
C14U G17A gave a self-cleavage of 0.514.
Variant C14U G17C has a self-cleavage of 0.156.
Variant C14U G17U has a self-cleavage of 0.511.
C15G U20G gave a self-cleavage of 0.
For C15G U20C, the self-cleavage was 0.166.
Variant C14U A87G has a self-cleavage of 1.07.
For C14U A51U, the self-cleavage was 1.14.
With C14U C24U the self-cleavage was 0.658.
Variant C15G U79A has a self-cleavage of 0.312.
C14U C22A gave a self-cleavage of 0.339.
For C14U C58G, the self-cleavage was 1.17.
For C14U C58U, the self-cleavage was 0.991.
C14U U23C showed a self-cleavage of 1.47.
C14U U23G gave a self-cleavage of 0.712.
Variant C14U G76U has a self-cleavage of 1.14.
C15A C30G gave a self-cleavage of 0.138.
C15A C30A gave a self-cleavage of 0.326.
Work on C15A G28C yielded a self-cleavage of 0.0449.
C15G C33A showed a self-cleavage of 0.0405.
With C15G C33G the self-cleavage was 0.0489.
C15G C33U showed a self-cleavage of 0.415.
C15G G52U gave a self-cleavage of 0.684.
Variant C14U G34U has a self-cleavage of 0.248.
C14U C18G showed a self-cleavage of 0.0875.
C15A G59C gave a self-cleavage of 0.723.
For C15U A43C, the self-cleavage was 0.0594.
C15G C85A gave a self-cleavage of 0.748.
Work on C14U G55U yielded a self-cleavage of 1.24.
C14U C66G showed a self-cleavage of 0.884.
In the case of C14U C66A, the self-cleavage is reported as 0.877.
In the case of C15A U79C, the self-cleavage is reported as 0.326.
For C15A G73C, the self-cleavage was 0.249.
C15G G55C gave a self-cleavage of 0.582.
In the case of C15G C66A, the self-cleavage is reported as 0.665.
With C15G C66G the self-cleavage was 0.475.
With C15A U23C the self-cleavage was 0.748.
In the case of C14U G25U, the self-cleavage is reported as 0.59.
Work on C14U G25A yielded a self-cleavage of 0.115.
Variant C15A G67U has a self-cleavage of 0.633.
For C15G C24G, the self-cleavage was 0.196.
With C15G C18A the self-cleavage was 0.0997.
For C15G C18U, the self-cleavage was 0.0852.
With C15G C18G the self-cleavage was 0.0594.
Work on C15G A71C yielded a self-cleavage of 0.222.
In the case of C15G A71U, the self-cleavage is reported as 0.489.
With C15G U72G the self-cleavage was 0.128.
C15G U72C showed a self-cleavage of 0.119.
Work on C15G C36G yielded a self-cleavage of 0.
For C15G C36A, the self-cleavage was 0.306.
C15A A70U showed a self-cleavage of 0.723.
With C15A A70G the self-cleavage was 0.755.
In the case of C15A G40A, the self-cleavage is reported as 0.77.
C15A C41U gave a self-cleavage of 0.399.
Variant C15A C41G has a self-cleavage of 0.285.
C15A C41A gave a self-cleavage of 0.655.
Work on C15A C84G yielded a self-cleavage of 0.244.
Variant C14U C75U has a self-cleavage of 0.138.
With C14U G29A the self-cleavage was 0.188.
C14U G29C gave a self-cleavage of 0.0941.
For C14U C49U, the self-cleavage was 0.942.
Work on C14U C49A yielded a self-cleavage of 1.37.
C14U C64U gave a self-cleavage of 0.972.
For C14U C64A, the self-cleavage was 0.939.
In the case of C15A C19A, the self-cleavage is reported as 0.147.
In the case of C14U G50A, the self-cleavage is reported as 1.01.
In the case of C14U C36A, the self-cleavage is reported as 0.128.
Work on C14U G74C yielded a self-cleavage of 0.369.
C14U G74A gave a self-cleavage of 0.604.
Work on C15A C63A yielded a self-cleavage of 0.403.
C15G G39C showed a self-cleavage of 0.0723.
With C15G G39A the self-cleavage was 0.341.
C15A C33G gave a self-cleavage of 0.
For C15G U65G, the self-cleavage was 0.886.
C15G U65C showed a self-cleavage of 0.332.
In the case of C15G U65A, the self-cleavage is reported as 0.831.
With C15G A56U the self-cleavage was 0.914.
For C15G A56C, the self-cleavage was 0.739.
For C15G G25C, the self-cleavage was 0.
In the case of C15G G25U, the self-cleavage is reported as 0.0354.
C15A G39C gave a self-cleavage of 0.107.
With C15A G39U the self-cleavage was 0.177.
For C15G G67U, the self-cleavage was 0.475.
For C15G G67C, the self-cleavage was 0.415.
Variant C15G G67A has a self-cleavage of 0.731.
Variant C15G G76A has a self-cleavage of 0.665.
C15G U23G showed a self-cleavage of 0.415.
Work on C14U A43U yielded a self-cleavage of 0.443.
With C15G C32A the self-cleavage was 0.158.
For C15G C32G, the self-cleavage was 0.145.
Variant C14U A56U has a self-cleavage of 1.22.
Work on C14U A56C yielded a self-cleavage of 1.44.
For C15A G74A, the self-cleavage was 0.174.
Work on C15A G74U yielded a self-cleavage of 0.218.
For C15A G74C, the self-cleavage was 0.185.
In the case of C15A G76U, the self-cleavage is reported as 0.919.
Variant C14U A78U has a self-cleavage of 0.156.
Work on C14U A78G yielded a self-cleavage of 0.831.
For C15A C64A, the self-cleavage was 0.689.
Work on C15A C64G yielded a self-cleavage of 0.81.
C15A C64U showed a self-cleavage of 0.623.
Variant C14U C19U has a self-cleavage of 0.0723.
Variant C14U C19G has a self-cleavage of 0.0396.
With C14U G31C the self-cleavage was 0.342.
Work on C14U G31U yielded a self-cleavage of 0.429.
In the case of C15A G81C, the self-cleavage is reported as 0.208.
Work on C15A G81U yielded a self-cleavage of 0.232.
Work on C14U G28A yielded a self-cleavage of 0.0811.
With C14U G28C the self-cleavage was 0.237.
With C15G C30A the self-cleavage was 0.147.
For C15G C30U, the self-cleavage was 0.145.
In the case of C15G G81C, the self-cleavage is reported as 0.375.
With C15G G81A the self-cleavage was 0.297.
C15G C75A gave a self-cleavage of 0.
C15G C75G showed a self-cleavage of 0.192.
C14U A16U showed a self-cleavage of 1.09.
Work on C14U A16C yielded a self-cleavage of 1.07.
Work on C14U U37G yielded a self-cleavage of 0.199.
With C14U U27A the self-cleavage was 1.03.
With C14U U27C the self-cleavage was 0.723.
C14U U27G gave a self-cleavage of 1.11.
Work on C14U C15A yielded a self-cleavage of 0.475.
